The results in this text go back to paper PMC9563052.

In the assay the target is fibrinogen γ-chain C-terminal residues 390-411 fused to GST. Nature of the assay: ELISA; ligand (γC390-411 or γC151-411) coated, soluble αIIbβ3 (1 µg/mL) pre-incubated with chemokine (CCL5, CXCL12 or CX3CL1) for 10 min, then 1 h at room temperature in HEPES-Tyrodes buffer with 1 mM CaCl2. (An ELISA detects its analyte on a solid surface through an enzyme-linked reagent.)

Take “soluble recombinant integrin αIIbβ3 (from UniProt P08514 32-1039; P05106 27-718) (complex)”: the fold binding to γC390-411 with CCL5 (50 µg/mL, 1 mM Ca2+) over 1 mM Mn2+ alone amounted to 4.5 fold and the fold binding to γC390-411 with CXCL12 (50 µg/mL, 1 mM Ca2+) over 1 mM Mn2+ alone was found to be 3.5 fold.
